Test results from US20220389111A1 (SHANGHAI EPIMAB BIOTHERAPEUTICS, published 2022).

T1: human CD39 protein (recombinant) (human, UniProt P49961 38-478, limits assumed)
T1 sequence: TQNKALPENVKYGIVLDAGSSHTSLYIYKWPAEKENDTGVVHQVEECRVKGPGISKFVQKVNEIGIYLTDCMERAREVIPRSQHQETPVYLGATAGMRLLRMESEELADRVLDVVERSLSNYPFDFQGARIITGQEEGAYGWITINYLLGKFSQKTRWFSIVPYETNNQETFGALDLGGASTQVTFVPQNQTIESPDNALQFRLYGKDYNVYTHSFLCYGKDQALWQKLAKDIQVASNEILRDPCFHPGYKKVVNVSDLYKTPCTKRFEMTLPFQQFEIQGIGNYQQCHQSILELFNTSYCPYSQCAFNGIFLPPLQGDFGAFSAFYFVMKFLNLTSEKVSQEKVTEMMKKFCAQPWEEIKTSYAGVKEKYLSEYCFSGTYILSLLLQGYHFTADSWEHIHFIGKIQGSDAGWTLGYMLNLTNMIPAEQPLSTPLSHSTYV


Columns and labels:
[1] = molecular target: T1, human CD39 protein (recombinant); assay: cell-based or functional assay
[2] = molecular target: T1, human CD39 protein (recombinant); assay: ELISA on coated human CD39 protein
Method: To determine if anti-CD39 mAbs bind to human CD39, ELISA plates were incubated overnight at 4° C. with human CD39 protein or mouse CD39 protein diluted in PBS, pH7.4 buffer at 1 μg/ml. Plates were washed four times in washing buffer (PBS containing 0.05% Tween 20), and blocked for 1 hour at 37° C. with 200 μl per well blocking buffer (1% BSA in PBS containing 0.05% Tween 20). After blocking buffer was removed, hybridoma supernatant or diluted purified Abs were added to the wells at 100 μl per well and incubated at 37° C. for 1 hour. The wells were washed four times with washing buffer, and anti-mouse HRP (for mouse anti-human CD39 Ab characterization) or anti-rat HRP (for rat anti-mouse CD39 Ab characterization) (Sigma) were 1:5000 diluted and added to the wells at 100 μl per well. The plates were incubated for 1 hour at 37° C. and washed four times in washing buffer. 100 μl of tetramethylbenzidine (TMB) chromogenic solution were added per well. Following color development, the reaction was stopped with 1N HCl, and absorbance at 450 nm was measured. The data were proceeded by GraphPad software.
Humanized antibodies HuEM04-38-6 to HuEM0004-38-20 and chimeric antibodies EM04-38c, EM004-38c1, and EM0004-38c2 were tested for CD39 specific binding by ELISA as described in Example 1.2 and for inhibition of protein-based ATPase activity as described in Example 1.3.

| ATPase inhibition IC50 [1] [nM] | ATPase inhibition, inhibition % [1] [%] | EC50 [2] [µg/mL] | Binder |
| --- | --- | --- | --- |
| 15.6 | 102 | 0.023 | EM0004-38c1 (antibody, human IgG1, kappa, L234A L235A, name in Kabat numbering, V domains shown, chimeric mAb638 variant; also called EM004-38c1) VH: QVQLQQPGTELVKPGASVKLSCKASGYTFTSFWMHWVKQRPGQGLEWIGNINPRQGATKYNEKFRSKVTLTADKTSSTAYMHLSSLTSEDSAVYYCAREDYDEIYYAMDSWGQGTSVTVSS VL: QNVLTQSPAIMSASPGEKVTMTCSASSSVIYMYWFQQKPGSSPRVLIYDTSNLASGVPARFSGSGSGTSYSLTISRMEAEDAATYYCQQWSTYPLTFGAGTKLELKR |
| 14.3 | 103 | 0.016 | EM0004-38c2 (antibody, human IgG1, kappa, L234A L235A, name in Kabat numbering, V domains shown, chimeric mAb638 variant) VH: QVQLQQPGTELVKPGASVKLSCKASGYTFTSFWMHWVKQRPGQGLEWIGNINPRNAATKYNEKFRSKVTLTADKTSSTAYMHLSSLTSEDSAVYYCAREDYDEIYYAMDSWGQGTSVTVSS VL: QNVLTQSPAIMSASPGEKVTMTCSASSSVIYMYWFQQKPGSSPRVLIYDTSNLASGVPARFSGSGSGTSYSLTISRMEAEDAATYYCQQWSTYPLTFGAGTKLELKR |
